B1: H32 scFv (scFv)
scFv: DIQMTQSPSSLSASVGDRVTITCKASQNVGTAVAWYQQKPGKAPKLLIYSASNRYTGVPSRFSGSGSGTDFTLTISSLQPEDFATYYCQQYSSYPLAFGQGTKVEIKRGGGGSIEGRSGGGGSEVQLVESGGGLVQPGGSLRLSCKASGFNIKDYFMYWVRQAPGKGLEWVGWIDPENGNTIYDPKFQGRFTISADTSKNTAYLQMNSLRAEDTAVYYCTRGYYGSRVLAMDYWGQGTLVTVSSASAAA
notes: also called scFv(H32)
B2: GH2-41 scFv (scFv)
scFv: DIQMTQSPSSLSASVGDRVTITCRASQDVSNSVAWYQQKPGKAPKLLISGAAWLYSGVPSRFSGSGSGTDFTLTISSLQPEDFATYYCQQSGNFPLTFGQGTKVEIKRGGSSRSSSSGGGGSGGGGEVQLVESGGGLVQPGGSLRLSCAASGFTISNWGIHWVRQAPGKGLEWVASIGPSGGFTSYADSVKGRFTISADTSKNTAYLQMNSLRAEDTAVYYCARFYIYGGVIMDYWGQGTLVTVSSASAAA
B3: GH2-61 scFv (scFv)
scFv: DIQMTQSPSSLSASVGDRVTITCRASQDVGSNVAWYQQKPGKAPKLLISWSTSLYSGVPSRFSGSGSGTDFTLTISSLQPEDFATYYCQQYGGWPITFGQGTKVEIKRGGGGSIEGRSGGGGSEVQLVESGGGLVQPGGSLRLSCAASGFTINNWGIHWVRQAPGKGLEWVAGIWPYGGYTYYADSVKGRFTISADTSKNTAYLQMNSLRAEDTAVYYCARFYNHHGGVMDYWGQGTLVTVSSASAAA
B4: GH2-20 scFv (scFv)
scFv: DIQMTQSPSSLSASVGDRVTITCRASQDVNNNVAWYQQKPGKAPKLLIYWTTYLYSGVPSRFSGSGSGTDFTLTISSLQPEDFATYYCQQGSNWPITFGQGTKVEIKRGGSSRSSSSGGGGSGGGGEVQLVESGGGLVQPGGSLRLSCAASGLTINDYGIHWVRQAPGKGLEWVASIGPSGGFTSYADSVKGRFTISADTSKNTAYLQMNSLRAEDTAVYYCARFVIYWGFFMDYWGQGTLVTVSSASAAA
B5: GH2-50 scFv (scFv)
scFv: DIQMTQSPSSLSASVGDRVTITCRASQDVFYGVAWYQQKPGKAPKLLIFWTTYLYSGVPSRFSGSGSGTDFTLTISSLQPEDFATYYCQQYFNWPLTFGQGTKVEIKRGGSSRSSSSGGGGSGGGGEVQLVESGGGLVQPGGSLRLSCAASGFTINNDGIHWVRQAPGKGLEWVAAIGPFWGSTDYADSVKGRFTISADTSTNTAYLHMNSLRAEDTALYYCARFGNYYDGVMDYWGQGTLVTVSSASAAA

Biological target: T1, HER2 on the surface of BT474 cells (human, UniProt P04626)
T1 construct: full-length receptor on the cell surface
Assay: flow cytometry on BT474 cells; scFv detected with AL2-RFP (1:1 scFv:AL fragment); MFI adjusted over cells with AL2-RFP without scFv

Binding result, binds:
B1, B2, B3, B4, B5

Biological target: T2, HER2 on the surface of N87 cells (human, UniProt P04626)
T2 construct: full-length receptor on the cell surface
Assay: flow cytometry on N87 cells; scFv detected with AL2-RFP (1:1 scFv:AL fragment); MFI adjusted over cells with AL2-RFP without scFv

Binding result, binds:
B1, B2, B3, B4, B5

— patent US20170355750A1 (ACADEMIA SINICA, published 2017)
